The results in this text go back to patent US11278600B2, “Human alpha-galactosidase variants” (Codexis, Inc., priority 2014, dated 2022).

What all share (format): biochemical
The nature of data set [1]: HTP-analysis of supernatants pretreated with acid (MUGal hydrolysis). The settings on record: activity of the variant/activity of Rd4BB (SEQ ID NO: 15); challenge at pH 3.7. The procedure, abridged: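 MUGal hydrolysis was tracked by fluorescence (Ex 355 nm, Em 448 nm) after a 30-180 min reaction at 37° C. in pH 4.8 McIlvaine/citrate buffer, stopped with 1 M sodium carbonate. Beforehand, yeast (INVSc1) culture supernatants carrying GLA variants were held 1-3 h at 37° C. in acidic McIlvaine buffer, pH 3.3-4.3.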

Data set [2] is described as follows: HTP-analysis of yeast culture supernatants, no challenge (MUGal hydrolysis). The following applies: activity of the variant/activity of Rd4BB (SEQ ID NO: 15). The procedure, abridged:
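GLA variants expressed in yeast INVSc1, secreted into SD-Ura broth over 66-84 h at 30° C; clarified supernatants tested without challenge. Supernatant mixed with McIlvaine buffer pH 4.8 and 2 mM MUGal (citrate/KCl, pH 4.6), 37° C for 30-180 min, carbonate-quenched, fluorescence Ex 355/Em 448 nm.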

Data set [3] in a line: HTP-analysis of supernatants pretreated with base (MUGal hydrolysis). The following applies: activity of the variant/activity of Rd4BB (SEQ ID NO: 15); challenge at pH 9.65. The procedure, abridged: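 GLA variants secreted from yeast INVSc1; culture supernatants pre-incubated with McIlvaine buffer pH 7.0–8.2 or 200 mM bicarbonate pH 9.1–9.7 at 37° C. for 1–18 h. Residual activity: MUGal (4 mM stock) hydrolysis at pH 4.3–4.8, 37° C., 30–180 min, carbonate quench; fluorescence Ex 355/Em 448 nm.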

B1: 475 (protein)
chain: LDNGLARTPTMGWLHWERFMCNLDCQEEPDSCISEKLFMEMAERMVSEGWKDAGYEYLCIDDCWMAPQRDSEGRLQADPQRFPHGIRQLANYVHSKGLKLGIYADVGNKTCAGFPGSFGYYDIDAQTFADWGVDLLKFDGCYCDSLENLADGYKHMSLALNRTGRSIVYSCEWPLYMWPFQKPNYTEIRQYCNHWRNFADIDDSWKSIKSILDWTSFNQERIVDVAGPGGWNDPDMLVIGNFGLSWNQQVTQMALWAIMAAPLFMSNDLRHISPQAKALLQDKDVIAINQDPLGKQGYQLRQGDNFEVWERPLSGLAWAVAMINRQEIGGPRSYTIAVASLGKGVACNPACFITQLLPVKRKLGFYEWTSRLRSHINPTGTVLLQLENDMQMSLKDLL
modifications: Synthetic Polypeptide sequence of Variant No. 475 of mature Human GLA
In the case of B1, in data set [1], the “Relative Activity of GLA Variants After Challenge at pH 3.7” value (shortened to “Relative Activity … at pH 3.7”) is given as “+ (0.5 to 1.5 relative activity over Rd4BB (SEQ ID NO: 15))”. Further, the “Relative Activity of GLA Variants After No Challenge (NC)” value in data set [2] is listed as “+ (0.5 to 1.5 relative activity over Rd4BB (SEQ ID NO: 15))”. The “Relative Activity of GLA Variants After Challenge at pH 9.65” value (“Relative Activity … at pH 9.65” below) in data set [3] is reported as “+ (0.5 to 1.5 relative activity over Rd4BB (SEQ ID NO: 15))”.

B2: 478 (protein)
chain: LDNGLARTPTMGWLHWERFMCNLDCQEEPDSCISEKLFMEMAERMVSEGWKDAGYEYLCIDDCWMAPQRDSEGRLQADPQRFPHGIRQLANYVHSKGLKLGIYADVGNKTCAGFPGSFGYYDIDAQTFADWGVDLLKFDGCYCDSLENLADGYKHMSLALNRTGRSIVYSCEWPLYMWPFQKPNYTEIRQYCNHWRNFADIDDSWKSIKSILDWTSFNQERIVDVAGPGGWNDPDMLVIGNFGLSWNQQVTQMALWAIMAAPLFMSNDLRHISPQAKALLQDKDVIAINQDPLGKQGYQLRQGDNFEVWERPLSGLAWAVAMINRQEIGGPRSYTIAVASLGKGVACNPACFITQLLPVKRKLGFYEWTSRLRSHINPTGTVLLQLENTMQSSLKDLL
modifications: Synthetic Polypeptide sequence of Variant No. 478 of mature Human GLA
For B2, the “Relative Activity … at pH 3.7” value in data set [1] is reported as “++ (>1.5 to 2.5 relative activity over Rd4BB (SEQ ID NO: 15))”. Further, in data set [2], the “Relative Activity of GLA Variants After No Challenge (NC)” value was “+ (0.5 to 1.5 relative activity over Rd4BB (SEQ ID NO: 15))”. Further, in data set [3], the “Relative Activity … at pH 9.65” value is reported as “+ (0.5 to 1.5 relative activity over Rd4BB (SEQ ID NO: 15))”.

B3: 481 (protein)
chain: LDNGLARTPTMGWLHWERFMCNLDCQEEPDSCISEKLFMEMAERMVSEGWKDAGYEYLCIDDCWMAPQRDSEGRLQADPQRFPHGIRQLANYVHSKGLKLGIYADVGNKTCAGFPGSFGYYDIDAQTFADWGVDLLKFDGCYCDSLENLADGYKHMSLALNRTGRSIVYSCEWPLYMWPFQKPNYTEIRQYCNHWRNFADIDDSWKSIKSILDWTSFNQERIVDVAGPGGWNDPDMLVIGNFGLSWNQQVTQMALWAIMAAPLFMSNDLRHISPQAKALLQDKDVIAINQDPLGKQGYQLRQGDNFEVWERPLSGLAWAVAMINRQEIGGPRSYTIAVASLGKGVACNPACFITQLLPVKRKLGFYEWTSRLRSHINPTGTVLLQLENTGQMSLKDLL
modifications: Synthetic Polypeptide sequence of Variant No. 481 of mature Human GLA
For B3, the “Relative Activity … at pH 3.7” value in data set [1] is on record as “+ (0.5 to 1.5 relative activity over Rd4BB (SEQ ID NO: 15))”. The “Relative Activity of GLA Variants After No Challenge (NC)” value in data set [2] was “+ (0.5 to 1.5 relative activity over Rd4BB (SEQ ID NO: 15))”. In addition, the “Relative Activity … at pH 9.65” value in data set [3] was “+ (0.5 to 1.5 relative activity over Rd4BB (SEQ ID NO: 15))”.

B4: 477 (protein)
chain: LDNGLARTPTMGWLHWERFMCNLDCQEEPDSCISEKLFMEMAERMVSEGWKDAGYEYLCIDDCWMAPQRDSEGRLQADPQRFPHGIRQLANYVHSKGLKLGIYADVGNKTCAGFPGSFGYYDIDAQTFADWGVDLLKFDGCYCDSLENLADGYKHMSLALNRTGRSIVYSCEWPLYMWPFQKPNYTEIRQYCNHWRNFADIDDSWKSIKSILDWTSFNQERIVDVAGPGGWNDPDMLVIGNFGLSWNQQVTQMALWAIMAAPLFMSNDLRHISPQAKALLQDKDVIAINQDPLGKQGYQLRQGDNFEVWERPLSGLAWAVAMINRQEIGGPRSYTIAVASLGKGVACNPACFITQLLPVKRKLGFYEWTSRLRSHINPTGTVLWQLENTMQMSLKDLL
modifications: Synthetic Polypeptide sequence of Variant No. 477 of mature Human GLA
With B4, in data set [1], the “Relative Activity … at pH 3.7” value is given as “− (<0.5 relative activity over Rd4BB (SEQ ID NO: 15))”. Further, the “Relative Activity of GLA Variants After No Challenge (NC)” value in data set [2] is given as “+ (0.5 to 1.5 relative activity over Rd4BB (SEQ ID NO: 15))”. Also, in data set [3], the “Relative Activity … at pH 9.65” value is recorded as “+ (0.5 to 1.5 relative activity over Rd4BB (SEQ ID NO: 15))”.

B5: 476 (protein)
chain: LDNGLARTPTMGWLHWERFMCNLDCQEEPDSCISEKLFMEMAERMVSEGWKDAGYEYLCIDDCWMAPQRDSEGRLQADPQRFPHGIRQLANYVHSKGLKLGIYADVGNKTCAGFPGSFGYYDIDAQTFADWGVDLLKFDGCYCDSLENLADGYKHMSLALNRTGRSIVYSCEWPLYMWPFQKPNYTEIRQYCNHWRNFADIDDSWKSIKSILDWTSFNQERIVDVAGPGGWNDPDMLVIGNFGLSWNQQVTQMALWAIMAAPLFMSNDLRHISPQAKALLQDKDVIAINQDPLGKQGYQLRQGDNFEVWERPLSGLAWAVAMINRQEIGGPRSYTIAVASLGKGVACNPACFITQLLPVKRKLGFYEWTSRLRSHINPTGTVLLQLENTEQMSLKDLL
modifications: Synthetic Polypeptide sequence of Variant No. 476 of mature Human GLA
As for B5, in data set [1], the “Relative Activity … at pH 3.7” value is “+ (0.5 to 1.5 relative activity over Rd4BB (SEQ ID NO: 15))”. Besides, the “Relative Activity of GLA Variants After No Challenge (NC)” value in data set [2] is “+ (0.5 to 1.5 relative activity over Rd4BB (SEQ ID NO: 15))”. Also, the “Relative Activity … at pH 9.65” value in data set [3] is listed as “+ (0.5 to 1.5 relative activity over Rd4BB (SEQ ID NO: 15))”.

B6: 479 (protein)
chain: LDNGLARTPTMGWLHWERFMCNLDCQEEPDSCISEKLFMEMAERMVSEGWKDAGYEYLCIDDCWMAPQRDSEGRLQADPQRFPHGIRQLANYVHSKGLKLGIYADVGNKTCAGFPGSFGYYDIDAQTFADWGVDLLKFDGCYCDSLENLADGYKHMSLALNRTGRSIVYSCEWPLYMWPFQKPNYTEIRQYCNHWRNFADIDDSWKSIKSILDWTSFNQERIVDVAGPGGWNDPDMLVIGNFGLSWNQQVTQMALWAIMAAPLFMSNDLRHISPQAKALLQDKDVIAINQDPLGKQGYQLRQGDNFEVWERPLSGLAWAVAMINRQEIGGPRSYTIAVASLGKGVACNPACFITQLLPVKRKLGFYEWTSRLRSHINPTGTVLLQLENTMQFSLKDLL
modifications: Synthetic Polypeptide sequence of Variant No. 479 of mature Human GLA
Regarding B6, in data set [1], the “Relative Activity … at pH 3.7” value is listed as “+ (0.5 to 1.5 relative activity over Rd4BB (SEQ ID NO: 15))”. The “Relative Activity of GLA Variants After No Challenge (NC)” value in data set [2] is “+ (0.5 to 1.5 relative activity over Rd4BB (SEQ ID NO: 15))”. For the same molecule, the “Relative Activity … at pH 9.65” value in data set [3] was “+ (0.5 to 1.5 relative activity over Rd4BB (SEQ ID NO: 15))”.

B7: 480 (protein)
chain: LDNGLARTPTMGWLHWERFMCNLDCQEEPDSCISEKLFMEMAERMVSEGWKDAGYEYLCIDDCWMAPQRDSEGRLQADPQRFPHGIRQLANYVHSKGLKLGIYADVGNKTCAGFPGSFGYYDIDAQTFADWGVDLLKFDGCYCDSLENLADGYKHMSLALNRTGRSIVYSCEWPLYMWPFQKPNYTEIRQYCNHWRNFADIDDSWKSIKSILDWTSFNQERIVDVAGPGGWNDPDMLVIGNFGLSWNQQVTQMALWAIMAAPLFMSNDLRHISPQAKALLQDKDVIAINQDPLGKQGYQLRQGDNFEVWERPLSGLAWAVAMINRQEIGGPRSYTIAVASLGKGVACNPACFITQLLPVKRKLGFYEWTSRLRSHINPTGTVLLQLENTRQMSLKDLL
modifications: Synthetic Polypeptide sequence of Variant No. 480 of mature Human GLA
For the molecule B7, the “Relative Activity … at pH 3.7” value in data set [1] is “+ (0.5 to 1.5 relative activity over Rd4BB (SEQ ID NO: 15))”. In data set [2], the “Relative Activity of GLA Variants After No Challenge (NC)” value was “+ (0.5 to 1.5 relative activity over Rd4BB (SEQ ID NO: 15))”. Also, the “Relative Activity … at pH 9.65” value in data set [3] is “+ (0.5 to 1.5 relative activity over Rd4BB (SEQ ID NO: 15))”.

B8: 369 (protein)
chain: LDNGLARTPTMGWLHWERFMCNLDCQEEPDSCISEKLFMEMAESMVSEGWKDAGYEYLCIDDCWMAPQRDSEGRLQADPQRFPHGIRQLANYVHSKGLKLGIYADVGNKTCAGFPGSFGYYDIDAQTFADWGVDLLKFDGCYCDSLENLADGYKHMSLALNRTGRSIVYSCEWPLYMWPFQKPNYTEIRQYCNHWRNFADIDDSWKSIKSILDWTSRNQERIVDVAGPGGWNDPDMLVIGNFGLSWDQQVTQMALWAIMAAPLFMSNDLRHISPQAKALLQDKDVIAINQDPLGKQGYQLRKGDNFEVWERPLSGDAWAVAIINRQEIGGPRSYTIPVASLGKGVACNPACFITQLLPVKRQLGFYNWTSRLKSHINPTGTVLLQLENTMQMSLKDLL
modifications: Synthetic Polypeptide sequence of Variant No. 369 of mature Human GLA
With B8, the “Relative Activity … at pH 3.7” value in data set [1] is given as “+ (0.5 to 1.5 relative activity over Rd4BB (SEQ ID NO: 15))”. Also, the “Relative Activity of GLA Variants After No Challenge (NC)” value in data set [2] was “+ (0.5 to 1.5 relative activity over Rd4BB (SEQ ID NO: 15))”. Besides, the “Relative Activity … at pH 9.65” value in data set [3] was “− (<0.5 relative activity over Rd4BB (SEQ ID NO: 15))”.
